8 molecules from US20250281611A1 (BIOSCEPTRE AUST, published 2025) can be followed below.

The target in experiment [1] is T1, nfP2X7 CAR 1.
T1 construct: CAR-positive cells gated by the co-expressed EGFR marker; also called nfP2X7 targeted CAR; nfP2X7 CAR on EGFR+ T cells
Kind of experiment: flow cytometry, nfP2X7 CAR 1 T cells (EGFR+ gate), anti-His-FITC detection. The procedure: (§1) nfP2X₇ CAR T cells were incubated with different BRiDGE variants at saturating concentrations. […] The MFI intensity correlates with the number of secondary bound antibodies bound to the BRiDGEs that are only detected if they are bound to the CAR T cells. EGFR was used as a marker gene to detect the CAR expression. Thus, the EGFR+ T cell population was defined as the CAR expressing cells and the EGFR− T cell population was defined as the CAR negative subset. MFI: median fluorescence intensity. EGFR: epidermal growth factor receptor. BLItz: Bio-Layer interferometry (BLI) technology using HIS-tag identification tips. HIS-tag MFI Ratio: relative index that is calculated by the testing condition MFI divided by the control MFI, which corresponds to the MFI measured on EGFR+ T cells (defined as CAR positive cells) divided by the MFI measured on the EGFR− T cells (defined as CAR negative cells). […] The higher the MFIR, the stronger the binding.
(In flow cytometry, cells or beads pass a laser one at a time.)

The target of experiment [2] is T1, nfP2X7 CAR 1. Nature of the experiment: flow cytometry, anti-His-FITC, MFI on EGFR+ (CAR+) over EGFR- (CAR-) T cells. The method, then:
as §1

Experiment [3] concerns the target T1, nfP2X7 CAR 1. Kind of experiment: flow cytometry, anti-His-FITC, MFI on EGFR+ (CAR+) T cells over background 0.44. The method, then:
as §1

For experiment [4], the target named is T2, CD19 (UniProt P15391 20-556, limits assumed).
T2 construct: whole, on cells; also called CD19 on JeKo-1
T2 sequence (looked up): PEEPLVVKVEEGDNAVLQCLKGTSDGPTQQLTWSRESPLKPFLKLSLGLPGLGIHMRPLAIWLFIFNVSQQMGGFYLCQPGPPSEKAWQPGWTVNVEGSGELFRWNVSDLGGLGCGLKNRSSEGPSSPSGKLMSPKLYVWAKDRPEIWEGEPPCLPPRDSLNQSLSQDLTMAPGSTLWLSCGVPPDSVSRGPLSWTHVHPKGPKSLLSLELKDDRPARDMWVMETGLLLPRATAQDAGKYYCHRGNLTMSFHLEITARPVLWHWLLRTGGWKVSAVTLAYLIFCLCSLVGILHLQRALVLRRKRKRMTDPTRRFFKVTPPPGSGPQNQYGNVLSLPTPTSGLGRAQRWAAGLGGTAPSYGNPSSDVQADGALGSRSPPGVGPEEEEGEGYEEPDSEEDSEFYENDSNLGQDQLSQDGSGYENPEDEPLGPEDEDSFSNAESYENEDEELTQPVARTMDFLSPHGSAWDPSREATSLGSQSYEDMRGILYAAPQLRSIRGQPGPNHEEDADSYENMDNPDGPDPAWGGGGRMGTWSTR
Kind of experiment: flow cytometry, JeKo-1 cells, BIL03s-AF647 detection, MFI over no-bridge control. The procedure: (§2) JeKo-1 cells were incubated with different CD19 BRiDGE variants at saturating concentrations. […] The MFI intensity correlates with the number of secondary bound antibodies bound to the CD19 BRiDGE variants that are only detected if they are bound to the JeKo-1 cells. MFI: median fluorescence intensity. BLitz: Bio-Layer interferometry (BLI) technology using HIS-tag identification tips. […] The higher the MFIR, the stronger the binding.

Experiment [5] concerns the target T2, CD19. Nature of the experiment: flow cytometry, JeKo-1 cells, bridge at saturating conc., BIL03s-AF647 detection. The procedure:
as §2

For experiment [6], the target named is T2, CD19. Nature of the experiment: flow cytometry, JeKo-1 cells, anti-His-FITC detection, MFI over no-bridge control. The procedure: as §2
The target in experiment [7] is T2, CD19. Nature of the experiment: flow cytometry, JeKo-1 cells, bridge at saturating conc., anti-His-FITC detection. The procedure: as §2

B1: CD19 BRIDGE variant B6 (Fab)
heavy: EVQLVESGGGLVKPGGSLKLSCAASGYTFTSYVMHWVRQAPGKGLEWIGYINPYNDGTKYNEKFQGRVTISSDKSISTAYMELSSLRSEDTAMYYCARGTYYYGTRVFDYWGQGTLVTVSSASTKGPSVFPLAPSSKSTSGGTAALGCLVKDYFPEPVTVSWNSGALTSGVHTFPAVLQSSGLYSLSSVVTVPSSSLGTQTYICNVNHKPSNTKVDKKVEPKSCHHHHHH
light: GHNYTTRNILPGLNITSTFHKTSGSGKGGGSEPKSSDKTHTDIVMTQSPATLSLSPGERATLSCRSSKSLQNVNGNTYLYWFQQKPGQSPQLLIYRMSNLNSGVPDRFSGSGSGTEFTLTISSLEPEDFAVYYCMQHLEYPITFGAGTKLEIKRTVAAPSVFIFPPSDEQLKSGTASVVCLLNNFYPREAKVQWKVDNALQSGNSQESVTEQDSKDSTYSLSSTLTLSKADYEKHKVYACEVTHQGLSSPVTKSFNRGEC
Turning to B1, the “MFI HisTag FITC in EGFR+ Population” value with nfP2X7 CAR 1 [1] stood at 1.99. Moreover, the “HisTag MFI Ratio of EGFR+/EGFR-” value with nfP2X7 CAR 1 [2] is 4.1. For the same molecule, in the experiment with nfP2X7 CAR 1 [3], the “HisTag MFI Ratio (background 0.44)” value was 4.5. In addition, the “MFIR BIL03 AF647” value with CD19 [4] was 11.5. In addition, the “MFI Bil03 AF647” value with CD19 [5] came to 5.29. In addition, in the experiment with CD19 [6], the “MFIR HisTag FITC” value came out at 4.32. For the same molecule, the “MFI HisTag FITC” value in the experiment with CD19 [7] is 3.33.

B2: CD19 BRIDGE variant B15 (Fab)
heavy: B1 heavy
light: GHNYTTRNILPGLNITSGGGGSEPKSSDKTHTGGGGSDIVMTQSPATLSLSPGERATLSCRSSKSLQNVNGNTYLYWFQQKPGQSPQLLIYRMSNLNSGVPDRFSGSGSGTEFTLTISSLEPEDFAVYYCMQHLEYPITFGAGTKLEIKRTVAAPSVFIFPPSDEQLKSGTASVVCLLNNFYPREAKVQWKVDNALQSGNSQESVTEQDSKDSTYSLSSTLTLSKADYEKHKVYACEVTHQGLSSPVTKSFNRGEC
B2: in the experiment with nfP2X7 CAR 1 [1], the “MFI HisTag FITC in EGFR+ Population” value was 2.61. Besides, the “HisTag MFI Ratio of EGFR+/EGFR-” value with nfP2X7 CAR 1 [2] was determined as 4.8. Besides, the “HisTag MFI Ratio (background 0.44)” value with nfP2X7 CAR 1 [3] came to 5.9. The “MFIR BIL03 AF647” value with CD19 [4] was 18.7. Moreover, in the experiment with CD19 [5], the “MFI Bil03 AF647” value turned out to be 8.58. For the same molecule, the “MFIR HisTag FITC” value in the experiment with CD19 [6] stood at 3.78. Further, in the experiment with CD19 [7], the “MFI HisTag FITC” value stood at 2.91.

B3: CD19 BRIDGE variant B12 (Fab)
heavy: B1 heavy
light: GHNYTTRNILPGLNITSTFHKTSGSGKGGGGSEPKSSDKTHTGSDIVMTQSPATLSLSPGERATLSCRSSKSLQNVNGNTYLYWFQQKPGQSPQLLIYRMSNLNSGVPDRFSGSGSGTEFTLTISSLEPEDFAVYYCMQHLEYPITFGAGTKLEIKRTVAAPSVFIFPPSDEQLKSGTASVVCLLNNFYPREAKVQWKVDNALQSGNSQESVTEQDSKDSTYSLSSTLTLSKADYEKHKVYACEVTHQGLSSPVTKSFNRGEC
B3: the “MFI HisTag FITC in EGFR+ Population” value with nfP2X7 CAR 1 [1] was 2.12. For the same molecule, the “HisTag MFI Ratio of EGFR+/EGFR-” value with nfP2X7 CAR 1 [2] was 4.2. Further, the “HisTag MFI Ratio (background 0.44)” value with nfP2X7 CAR 1 [3] was 4.8. In addition, the “MFIR BIL03 AF647” value with CD19 [4] came to 19.7. For the same molecule, in the experiment with CD19 [5], the “MFI Bil03 AF647” value was found to be 9.08. Further, the “MFIR HisTag FITC” value with CD19 [6] is 4.36. In the experiment with CD19 [7], the “MFI HisTag FITC” value is 3.36.

B4: CD19 BRIDGE variant B11 (Fab)
heavy: B1 heavy
light: GHNYTTRNILPGLNITSTFHKTSGSGKGSEPKSSDKTHTGSDIVMTQSPATLSLSPGERATLSCRSSKSLQNVNGNTYLYWFQQKPGQSPQLLIYRMSNLNSGVPDRFSGSGSGTEFTLTISSLEPEDFAVYYCMQHLEYPITFGAGTKLEIKRTVAAPSVFIFPPSDEQLKSGTASVVCLLNNFYPREAKVQWKVDNALQSGNSQESVTEQDSKDSTYSLSSTLTLSKADYEKHKVYACEVTHQGLSSPVTKSFNRGEC
For B4, the “MFI HisTag FITC in EGFR+ Population” value in the experiment with nfP2X7 CAR 1 [1] was found to be 2. Besides, the “HisTag MFI Ratio of EGFR+/EGFR-” value with nfP2X7 CAR 1 [2] amounted to 4. Also, the “HisTag MFI Ratio (background 0.44)” value with nfP2X7 CAR 1 [3] worked out at 4.5. For the same molecule, the “MFIR BIL03 AF647” value in the experiment with CD19 [4] is 14. For the same molecule, the “MFI Bil03 AF647” value with CD19 [5] worked out at 6.43. Also, in the experiment with CD19 [6], the “MFIR HisTag FITC” value was 4. In addition, the “MFI HisTag FITC” value with CD19 [7] came out at 3.08.

B5: CD19 BRIDGE variant B8 (Fab, V domains shown)
VH: EVQLVESGGGLVKPGGSLKLSCAASGYTFTSYVMHWVRQAPGKGLEWIGYINPYNDGTKYNEKFQGRVTISSDKSISTAYMELSSLRSEDTAMYYCARGTYYYGTRVFDYWGQGTLVTVSS
VL: DIVMTQSPATLSLSPGERATLSCRSSKSLQNVNGNTYLYWFQQKPGQSPQLLIYRMSNLNSGVPDRFSGSGSGTEFTLTISSLEPEDFAVYYCMQHLEYPITFGAGTKLEIKR
In the case of B5, the “MFI HisTag FITC in EGFR+ Population” value with nfP2X7 CAR 1 [1] came out at 2.53. Also, the “HisTag MFI Ratio of EGFR+/EGFR-” value with nfP2X7 CAR 1 [2] came to 4.4. In addition, the “HisTag MFI Ratio (background 0.44)” value in the experiment with nfP2X7 CAR 1 [3] is 5.8. The “MFIR BIL03 AF647” value with CD19 [4] worked out at 23. Moreover, the “MFI Bil03 AF647” value with CD19 [5] came to 10.6. Further, the “MFIR HisTag FITC” value in the experiment with CD19 [6] came to 4.65. In addition, the “MFI HisTag FITC” value with CD19 [7] came to 3.58.

B6: CD19 BRIDGE variant B14 (Fab, V domains shown)
VH: B5 VH
VL: B5 VL
Turning to B6, the “MFI HisTag FITC in EGFR+ Population” value in the experiment with nfP2X7 CAR 1 [1] came to 2.41. Moreover, the “HisTag MFI Ratio of EGFR+/EGFR-” value with nfP2X7 CAR 1 [2] was 4.5. Also, the “HisTag MFI Ratio (background 0.44)” value in the experiment with nfP2X7 CAR 1 [3] was determined as 5.5. The “MFIR BIL03 AF647” value in the experiment with CD19 [4] is 15.8. Moreover, in the experiment with CD19 [5], the “MFI Bil03 AF647” value was determined as 7.27. Moreover, in the experiment with CD19 [6], the “MFIR HisTag FITC” value amounted to 4.05. The “MFI HisTag FITC” value with CD19 [7] was found to be 3.12.

B7: CD19 BRIDGE variant B13 (Fab, V domains shown)
VH: B5 VH
VL: B5 VL
Take B7: the “MFI HisTag FITC in EGFR+ Population” value with nfP2X7 CAR 1 [1] was 2.13. Moreover, the “HisTag MFI Ratio of EGFR+/EGFR-” value in the experiment with nfP2X7 CAR 1 [2] was 4.1. The “HisTag MFI Ratio (background 0.44)” value in the experiment with nfP2X7 CAR 1 [3] amounted to 4.8. Further, the “MFIR BIL03 AF647” value with CD19 [4] was determined as 11.5. In addition, the “MFI Bil03 AF647” value with CD19 [5] is 5.28. Besides, in the experiment with CD19 [6], the “MFIR HisTag FITC” value came out at 3.88. Also, the “MFI HisTag FITC” value in the experiment with CD19 [7] is 2.99.

B8: CD19 BRIDGE variant B9 (Fab, V domains shown)
VH: B5 VH
VL: B5 VL
On to B8, for which the “MFI HisTag FITC in EGFR+ Population” value with nfP2X7 CAR 1 [1] worked out at 2.32. In addition, in the experiment with nfP2X7 CAR 1 [2], the “HisTag MFI Ratio of EGFR+/EGFR-” value amounted to 4.1. In addition, in the experiment with nfP2X7 CAR 1 [3], the “HisTag MFI Ratio (background 0.44)” value is 5.3. The “MFIR BIL03 AF647” value with CD19 [4] worked out at 10.5. For the same molecule, the “MFI Bil03 AF647” value with CD19 [5] came out at 4.82. In the experiment with CD19 [6], the “MFIR HisTag FITC” value was determined as 3.9. Further, in the experiment with CD19 [7], the “MFI HisTag FITC” value was 3.
